Assays:
[1] = target: T1, GST-ITK/KD/G354 (wild-type ITK kinase domain) (Homo sapiens, UniProt Q08881); experiment: Tec Family Kinase Assay (DELFIA), wild-type ITK kinase domain; type: biochemical; conditions: 15 μM ATP substrate mix
T1 construct: made in house; host or cells: Spodoptera frugiperda Sf21 cells, baculovirus

[2] = target: T2, GST-ITK/KD/G354/F437Y (ITK F437Y) (Homo sapiens, UniProt Q08881, F437Y); experiment: Tec Family Kinase Assay (DELFIA), F437Y mutant ITK kinase domain; type: biochemical; conditions: for IC50: GST-ITK/KD/G354/F437Y mutant; for Fold Difference in IC50: ITK F437Y IC50 versus wild-type ITK IC50
T2 construct: made in house; host or cells: Spodoptera frugiperda Sf21 cells, baculovirus
T2 sequence (Q08881 with tags, fused parts or gaps F437Y): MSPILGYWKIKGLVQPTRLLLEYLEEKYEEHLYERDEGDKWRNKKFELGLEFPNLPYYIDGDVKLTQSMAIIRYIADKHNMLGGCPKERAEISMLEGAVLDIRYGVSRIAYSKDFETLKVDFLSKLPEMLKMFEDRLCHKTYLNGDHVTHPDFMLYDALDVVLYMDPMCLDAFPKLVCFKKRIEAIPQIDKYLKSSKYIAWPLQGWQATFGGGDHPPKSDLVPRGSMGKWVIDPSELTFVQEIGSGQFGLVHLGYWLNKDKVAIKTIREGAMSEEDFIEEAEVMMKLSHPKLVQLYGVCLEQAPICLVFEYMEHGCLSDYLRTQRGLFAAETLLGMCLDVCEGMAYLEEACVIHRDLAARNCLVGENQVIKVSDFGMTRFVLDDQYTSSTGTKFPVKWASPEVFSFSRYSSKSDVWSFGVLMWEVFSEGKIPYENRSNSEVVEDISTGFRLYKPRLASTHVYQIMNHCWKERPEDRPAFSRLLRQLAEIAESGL

poly Glu4: Tyr1 (PGTYR) = experiment: Catalytic activity of ITK kinase domain constructs (kinase assay); type: biochemical; conditions: for Kinase Activity: Using 250 nM enzyme; for catalytic activity (in words): human ITK kinase domain fragments
Experimental: ITK is purified as a GST-fusion protein to test for catalytic activity. The kinase activity is measured using DELFIA (Dissociation Enhanced Lanthanide Fluoroimmunoassay) which utilizes europium chelate-labeled anti-phosphotyrosine antibodies to detect phosphate transfer to a random polymer, poly Glu4: Tyr1 (PGTYR). The screen utilizes the Zymark Allegro UHTS system to dispense reagents, buffers and samples for assay, and also to wash plates. The kinase assay is performed in kinase assay buffer (50 mM HEPES, pH 7.0, 25 mM MgCl2, 5 mM MnCl2, 50 mM KCl, 100 μM Na3VO4, 0.2% BSA, 0.01% CHAPS, 200 μM TCEP). Test samples initially dissolved in DMSO at 1 mg/mL, are pre-diluted for dose response (9 doses with starting final concentration of 3 μg/mL, 1 to 3 serial dilutions) with the assay buffer in 384-well polypropylene microtiter plates. […] Background wells are incubated with buffer, rather than 20 μL enzyme. The assay plates are incubated for 30 min at room temperature. Following incubation, the assay plates are washed three times with 100 μL wash buffer (50 mM Tris-HCL, pH 7.4, 150 mM NaCl, 0.05% Tween 20, 0.2% BSA). A 50 μL aliquot of europium-labeled anti-phosphotyrosine (Eu^3+-PT66, Wallac CR04-100) diluted in 50 mM Tris-HCl, pH 7.8, 150 mM NaCl, 10 μM DTPA, 0.05% Tween 40, 0.2% BSA, 0.05% BGG (1 nM final concentration) is added to each well and incubated for 30 min at room temperature. Upon completion of the incubation, the plate is washed four times with 100 μL of wash buffer and 50 μL of DELFIA Enhancement Solution (Wallac) is added to each well. After 15 min, time-resolved fluorescence is measured on the LJL's Analyst (excitation at 360 nm, emission at 620 nm, EU 400 Dichroic Mirror) after a delay time of 250 μs. An IC50 can be obtained by fitting the rates vs. compound/ligand concentration data into a simple competitive inhibitor model. Under these assay conditions, a 3-fold difference in compound potency (IC50) is considered within the variation of the assay. Preferred ligands will have an IC50<1000 nM.
A significant obstacle in the process of obtaining the 3-dimensional structure of a protein by X-ray crystallography is the identification of a protein fragment that is amenable to the formation of protein crystals of suitable quality. Since kinases often have multiple domains, one strategy that increases the likelihood of generating protein crystals of the kinase domain (catalytic) fragment has been to delete the other domains. Furthermore, by making a kinase domain fragment analogous to that of a related kinase for which a crystal structure has been determined, one may further increase the probability of generating suitable protein crystals. Using these concepts, the human ITK/KD/Q343 construct was generated. Theory predicts that a more compactly folded protein has a greater probability of producing high quality protein crystals. Therefore, the human ITK/KD/Q343 construct was subjected to limited proteolysis with trypsin to identify any fragments of the construct that are easily accessible to the protease and are thus likely to be less compactly folded. Using this strategy, the human ITK/KD/G354 and ITK/KD/S361 constructs were designed. To prioritize the three human ITK kinase domain protein fragments for crystallization trials, each was assayed for catalytic activity and for structural foldedness by circular dichroism-monitored thermal denaturation. […] Consequently, the ITK/KD/G354 construct was prioritized for structural studies since it was catalytically active and predicted to be tightly folded. To further increase the probability of obtaining suitable crystals, a murine construct (ITK/KD/G353) analogous to the human ITK/KD/G354 construct was generated. […]

[3] = Thermal denaturation of ITK constructs (circular dichroism-monitored); type: physicochemical; conditions: for Tm: 5 μM construct, pH 7.0 buffer, 230 nm, 2 to 100° C. at 0.2° C./min; for Tm comparison (in words): thermal denaturation studies
Experimental: Thermal denaturation experiments were performed on a Jasco J-720 spectropolarimeter equipped with a Peltier thermostatic cell holder. For each measurement, a 1 cm quartz cuvette was loaded with 5 μM ITK kinase domain construct in a pH 7.0 buffer containing 10 mM sodium phosphate, 100 mM NaCl and 1 mM TCEP. Absorbance data at 230 nm was collected as the temperature was scanned from 2 to 100° C. at a ramp rate of 0.2° C./min. The melting temperature (Tm) for each sample was calculated as the maximum deflection point of the first derivative of the melting transition using Origin (version 7.0).
A significant obstacle in the process of obtaining the 3-dimensional structure of a protein by X-ray crystallography is the identification of a protein fragment that is amenable to the formation of protein crystals of suitable quality. Since kinases often have multiple domains, one strategy that increases the likelihood of generating protein crystals of the kinase domain (catalytic) fragment has been to delete the other domains. Furthermore, by making a kinase domain fragment analogous to that of a related kinase for which a crystal structure has been determined, one may further increase the probability of generating suitable protein crystals. Using these concepts, the human ITK/KD/Q343 construct was generated. Theory predicts that a more compactly folded protein has a greater probability of producing high quality protein crystals. Therefore, the human ITK/KD/Q343 construct was subjected to limited proteolysis with trypsin to identify any fragments of the construct that are easily accessible to the protease and are thus likely to be less compactly folded. Using this strategy, the human ITK/KD/G354 and ITK/KD/S361 constructs were designed. To prioritize the three human ITK kinase domain protein fragments for crystallization trials, each was assayed for catalytic activity and for structural foldedness by circular dichroism-monitored thermal denaturation. […] Consequently, the ITK/KD/G354 construct was prioritized for structural studies since it was catalytically active and predicted to be tightly folded. To further increase the probability of obtaining suitable crystals, a murine construct (ITK/KD/G353) analogous to the human ITK/KD/G354 construct was generated. This murine ITK kinase domain construct has 3 conservative and 7 non-conservative amino acid substitutions when compared with the human ITK/KD/G354 construct which may alter the conformation or surface properties of the protein thus providing alternative opportunities for crystal formation.

T1 sequence (Q08881 with tags, fused parts or gaps): as the sequence (Q08881 with tags, fused parts or gaps F437Y) above, with Y311F counted along it

IC50 [1]	IC50 [2]	Fold Difference in IC50 [2]	Molecule	Kinase Activity (poly Glu4: Tyr1 (PGTYR))	catalytic activity (in words) (poly Glu4: Tyr1 (PGTYR))	Tm [3]	Tm comparison (in words) [3]
460 nM	1200 nM	2.6	CNc1ccc2c(c1)nc(NC(=O)c1ccc(C#N)cc1)n2CCC(N)=O [Compound 1]	–	–	–	–
440 nM	500 nM	1.1	Cc1ccc2c(c1)nc(NC(=O)c1ccc(C#N)cc1)n2CCC(N)=O [Compound 3]	–	–	–	–
15 nM	160 nM	10.7	CN(C(=O)C1CCCCC1)c1ccc2c(c1)nc(NC(=O)c1ccc(C#N)cc1)n2CCCN1CCCC1=O [Compound 7]	–	–	–	–

The remaining lines, values behind:

Molecule	IC50 [1]	IC50 [2]	Fold Difference in IC50 [2]	Kinase Activity (poly Glu4: Tyr1 (PGTYR))	catalytic activity (in words) (poly Glu4: Tyr1 (PGTYR))	Tm [3]	Tm comparison (in words) [3]
ITK/KD/Q343: human ITK kinase domain fragment comprising ITK residues 343-620 (SEQ ID NO. 9) (protein, listed as Homo sapiens) GSMQKAPVTAGLRYGKWVIDPSELTFVQEIGSGQFGLVHLGYWLNKDKVAIKTIREGAMSEEDFIEEAEVMMKLSHPKLVQLYGVCLEQAPICLVFEFMEHGCLSDYLRTQRGLFAAETLLGMCLDVCEGMAYLEEACVIHRDLAARNCLVGENQVIKVSDFGMTRFVLDDQYTSSTGTKFPVKWASPEVFSFSRYSSKSDVWSFGVLMWEVFSEGKIPYENRSNSEVVEDISTGFRLYKPRLASTHVYQIMNHCWKERPEDRPAFSRLLRQLAEIAESGL	–	–	–	2000 Fluorescent Units	showed significant catalytic activity	50.0 °C	–
ITK/KD/G354: human ITK kinase domain fragment comprising ITK residues 354-620 (SEQ ID NO. 1) (protein, listed as Homo sapiens) GSMGKWVIDPSELTFVQEIGSGQFGLVHLGYWLNKDKVAIKTIREGAMSEEDFIEEAEVMMKLSHPKLVQLYGVCLEQAPICLVFEFMEHGCLSDYLRTQRGLFAAETLLGMCLDVCEGMAYLEEACVIHRDLAARNCLVGENQVIKVSDFGMTRFVLDDQYTSSTGTKFPVKWASPEVFSFSRYSSKSDVWSFGVLMWEVFSEGKIPYENRSNSEVVEDISTGFRLYKPRLASTHVYQIMNHCWKERPEDRPAFSRLLRQLAEIAESGL	–	–	–	910 Fluorescent Units	showed significant catalytic activity	67.2 °C	higher Tm than ITK/KD/Q343
ITK/KD/S361: human ITK kinase domain fragment comprising ITK residues 361-620 (SEQ ID NO. 12) (protein, listed as Homo sapiens) GSMSELTFVQEIGSGQFGLVHLGYWLNKDKVAIKTIREGAMSEEDFIEEAEVMMKLSHPKLVQLYGVCLEQAPICLVFEFMEHGCLSDYLRTQRGLFAAETLLGMCLDVCEGMAYLEEACVIHRDLAARNCLVGENQVIKVSDFGMTRFVLDDQYTSSTGTKFPVKWASPEVFSFSRYSSKSDVWSFGVLMWEVFSEGKIPYENRSNSEVVEDISTGFRLYKPRLASTHVYQIMNHCWKERPEDRPAFSRLLRQLAEIAESGL	–	–	–	30 Fluorescent Units	did not possess activity above background levels	72.8 °C	highest Tm

From US20070032403A1, “Crystal structure of the ITK kinase domain” (Boehringer Ingelheim Pharmaceuticals, Inc., priority 2003, published 2007)
